Assay results reported in US20020182666.

Assays:
[1] = molecular target: T1, recombinant human full-length TrpRS with C-terminal tag of six histidine residues
T1 chain: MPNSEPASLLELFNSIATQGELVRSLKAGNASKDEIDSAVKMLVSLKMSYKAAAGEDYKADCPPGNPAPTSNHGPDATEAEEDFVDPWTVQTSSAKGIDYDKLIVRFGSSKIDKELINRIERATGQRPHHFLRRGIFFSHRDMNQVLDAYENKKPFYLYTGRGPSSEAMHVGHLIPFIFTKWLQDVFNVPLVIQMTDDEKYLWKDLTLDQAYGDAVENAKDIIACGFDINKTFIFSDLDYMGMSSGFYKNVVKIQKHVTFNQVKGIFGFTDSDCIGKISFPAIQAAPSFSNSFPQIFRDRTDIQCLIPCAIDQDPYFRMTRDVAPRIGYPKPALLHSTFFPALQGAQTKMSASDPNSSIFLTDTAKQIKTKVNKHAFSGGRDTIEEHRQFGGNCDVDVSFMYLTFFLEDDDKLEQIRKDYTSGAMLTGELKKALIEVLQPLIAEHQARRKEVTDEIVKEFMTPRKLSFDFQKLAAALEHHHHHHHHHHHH

[2] = molecular target: T2, recombinant human full-length TyrRS with C-terminal tag of six histidine residues
T2 chain: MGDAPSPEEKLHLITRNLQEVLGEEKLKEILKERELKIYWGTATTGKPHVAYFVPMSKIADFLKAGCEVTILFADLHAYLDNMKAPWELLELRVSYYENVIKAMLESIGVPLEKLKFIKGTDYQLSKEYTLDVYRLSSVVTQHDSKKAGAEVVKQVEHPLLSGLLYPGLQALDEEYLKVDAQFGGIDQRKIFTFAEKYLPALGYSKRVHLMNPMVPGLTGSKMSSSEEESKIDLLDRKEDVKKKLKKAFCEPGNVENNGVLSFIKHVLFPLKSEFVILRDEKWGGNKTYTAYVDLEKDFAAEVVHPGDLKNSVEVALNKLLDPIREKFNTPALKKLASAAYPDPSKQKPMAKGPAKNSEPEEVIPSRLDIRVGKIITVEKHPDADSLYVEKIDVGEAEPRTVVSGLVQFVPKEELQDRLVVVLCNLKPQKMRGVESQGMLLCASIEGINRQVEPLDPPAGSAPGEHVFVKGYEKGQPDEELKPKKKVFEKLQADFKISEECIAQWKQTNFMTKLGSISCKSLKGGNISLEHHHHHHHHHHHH

B1: PMN elastase (protein)
chain: IVGGRRARPHAWPFMVSLQLRGGHFCGATLIAPNFVMSAAHCVANVNVRAVRVVLGAHNLSRREPTRQVFAVQRIFENGYDPVNLLNDIVILQLNGSATINANVQVAQLPAQGRRLGNGVQCLAMGWGLLGRNRGIASVLQELNVTVVTSLCRRSNVCTLVRGRQAGVCFGDSGSPLVCNGLIHGIASFVRGGCASGLYPDAFAPVAQFVNWIDSIIQ
[1]
  cleavage of full-length TrpRS by PMN elastase (SDS-PAGE): PMN elastase cleavage of the 54 kDa full-length TrpRS generated a major fragment of 47 kDa and a minor fragment of 44 kDa
[2]
  cleavage of full-length TyrRS by PMN elastase (SDS-PAGE, immunoblot): the addition of PMN elastase to full-length TyrRS generated a doublet of ~40 kD fragments and a ~24 kD fragment
